The values that follow come from US20250320281A1.

Common to all, as to test: cell-based or functional assay
Assay [1] addresses HIV-1 Env of pseudovirus MGRM-AE-004 (clade CRF01_AE) (HIV-1).
In assay [2] the target is HIV-1 JRCSF envelope glycoprotein (Env) on pseudovirus (HIV-1) (UniProt P20871).
In assay [3] the target is HIV-1 Env of pseudovirus MGRM-AG-011 (clade CRF_AG) (HIV-1).
Assay [4] deals with HIV-1 envelope glycoprotein (Env) of isolate 92RW026, clade A (HIV-1).
Assay [5] deals with HIV-1 Env of isolate 6535.3 (Acute), clade B, on pseudovirus (HIV-1).
The target in assay [6] is HIV-1 Env of pseudovirus MGRM-F1-004 (HIV-1).
For assay [7], the target named is HIV-1 Env of pseudovirus MGRM-Chronic-B-011 (HIV-1).
For assay [8], the target named is HIV-1 Env of pseudovirus MGRM-AE-006 (clade CRF01_AE) (HIV-1).
The target in assay [9] is HIV-1 92TH021 envelope glycoprotein (Env) on pseudovirus (HIV-1).
In assay [10] the target is HIV-1 Env of pseudovirus MGRM-F1-022 (HIV-1).
Assay [11] concerns the target HIV-1 Env of pseudovirus MGRM-AG-001 (clade CRF_AG) (HIV-1).
Assay [12] has as its target HIV-1 envelope glycoprotein (Env) of isolate MGRM-A-001, clade A (HIV-1).
Assay [13] has as its target HIV-1 92RW020 envelope glycoprotein (Env) on pseudovirus (HIV-1).
For assay [14], the target named is HIV-1 Env of isolate 92BR020, clade B, on pseudovirus (HIV-1).
The target of assay [15] is HIV-1 Env of pseudovirus MGRM-AE-001 (clade CRF01_AE) (HIV-1).
For assay [16], the target named is HIV-1 envelope glycoprotein (Env) of isolate 94UG103, clade A (HIV-1).
Assay [17] has as its target HIV-1 Env of isolate TRJ0.58 (Acute), clade B, on pseudovirus (HIV-1).
Assay [18] deals with HIV-1 Env of pseudovirus MGRM-AG-006 (clade CRF_AG) (HIV-1).
In assay [19] the target is HIV-1 Env of isolate MGRM-Chronic-B-001, clade B, on pseudovirus (HIV-1).

Sequence of 1443_C16 (PG16) (TCN-116) (antibody) (VH): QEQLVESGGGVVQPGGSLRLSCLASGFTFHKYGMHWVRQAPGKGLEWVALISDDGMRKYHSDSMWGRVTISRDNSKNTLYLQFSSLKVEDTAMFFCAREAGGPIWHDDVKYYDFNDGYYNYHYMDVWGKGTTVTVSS
Sequence of 1443_C16 (PG16) (TCN-116) (antibody) (VL): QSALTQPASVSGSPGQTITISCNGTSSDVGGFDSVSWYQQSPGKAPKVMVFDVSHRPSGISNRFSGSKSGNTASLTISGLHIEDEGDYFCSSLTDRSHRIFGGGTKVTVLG

The term IC50 denotes the concentration that gives 50% inhibition. In the case of 4E10 (antibody), the IC50 in assay [1] was found to be 1.27 µg/mL; in assay [3] it was 1.36 µg/mL; in [8] it was 0.23 µg/mL; in assay [11], 1.12 µg/mL; in [15] it was 0.85 µg/mL; in [18], 1.76 µg/mL. Besides, the IC50, pseudovirus neutralization in assay [2] came out at 6 µg/mL; in assay [9] it was 1.9 µg/mL; in [13], 3.38 µg/mL. This substance also had an IC90 (pseudovirus neutralization) in [2] of 44.1 µg/mL. The IC50 (µg/ml), pseudovirus neutralization in assay [4] amounted to 12.9 µg/mL; in assay [5] it was 1.23 µg/mL; in [6], 2.74 µg/mL; in assay [7], 1.07 µg/mL; in assay [10], 1.01 µg/mL; in assay [12], 15.1 µg/mL. In addition, the IC50 (µg/ml), pseudovirus neutralization in assay [14] was greater than 50 µg/mL; in [16] it was 4.97 µg/mL; in [17], 11.9 µg/mL; in assay [19], 1.46 µg/mL.
Consider 1443_C16 (PG16) (TCN-116) (antibody), for which the concentration for half-maximal inhibition (IC50) in assay [1] is 0.002 µg/mL; in [3], 0.002 µg/mL; in assay [8], 0.03 µg/mL; in [11] it was 0.03 µg/mL; in assay [15] it was 4.33 µg/mL; in assay [18], greater than 50 µg/mL. Besides, the IC50, pseudovirus neutralization was less than 0.0025 µg/mL in [2], 0.127 µg/mL in [9] and 0.004 µg/mL in assay [13]. The substance further had an IC90 (pseudovirus neutralization) in [2] of 0.013 µg/mL. Also, the IC50 (µg/ml), pseudovirus neutralization in assay [4] is 0.03 µg/mL; in [5], 36.9 µg/mL; in assay [6], 0.43 µg/mL; in assay [7] it was greater than 50 µg/mL; in assay [10], 0.08 µg/mL; in assay [12] it was greater than 50 µg/mL. Further, the IC50 (µg/ml), pseudovirus neutralization was greater than 50 µg/mL in assay [14], 0.04 µg/mL in assay [16], 1.16 µg/mL in assay [17] and greater than 50 µg/mL in [19].
As for 1495_C14 (PGC14) (antibody), the IC50 in assay [1], in [3], in [8], in assay [11], in [15] and in assay [18] was greater than 50 µg/mL throughout. For the same substance, the IC50, pseudovirus neutralization was greater than 50 µg/mL in [2], greater than 50 µg/mL in assay [9] and 28.6 µg/mL in assay [13]. Besides, the IC50 (µg/ml), pseudovirus neutralization in assay [4] is greater than 50 µg/mL; in assay [5], 35 µg/mL; in [6], greater than 50 µg/mL; in assay [7], greater than 50 µg/mL; in assay [10], greater than 50 µg/mL; in [12], greater than 50 µg/mL. Further, the IC50 (µg/ml), pseudovirus neutralization in assay [14] is 4 µg/mL; in assay [16], greater than 50 µg/mL; in assay [17] it was greater than 50 µg/mL; in [19] it was greater than 50 µg/mL.
On to b12 (antibody), for which the IC50 was greater than 50 µg/mL in assay [1]; greater than 50 µg/mL in assay [3]; greater than 50 µg/mL in assay [8]; 11.9 µg/mL in assay [11]; 25.9 µg/mL in assay [15]; greater than 50 µg/mL in assay [18]. The IC50, pseudovirus neutralization was 0.16 µg/mL in assay [2], 9.99 µg/mL in [9] and greater than 50 µg/mL in [13]. For the same substance, the IC90 (pseudovirus neutralization) in [2] amounted to 1.17 µg/mL. Also, the IC50 (µg/ml), pseudovirus neutralization is greater than 50 µg/mL in assay [4]; 1.93 µg/mL in assay [5]; greater than 50 µg/mL in assay [6]; 2.11 µg/mL in [7]; greater than 50 µg/mL in assay [10]; greater than 50 µg/mL in assay [12]. The IC50 (µg/ml), pseudovirus neutralization was greater than 50 µg/mL in assay [14], 6.92 µg/mL in assay [16], greater than 50 µg/mL in assay [17] and 0.75 µg/mL in assay [19].
